Measurements reported in patent KR20220081857A (dated 2022).

T1: 인간 OX40L 단백질 (OX40L-his; ACROBiosystems Cat# OXL-H52Q8) (human, UniProt P23510 51-183)
T1 sequence: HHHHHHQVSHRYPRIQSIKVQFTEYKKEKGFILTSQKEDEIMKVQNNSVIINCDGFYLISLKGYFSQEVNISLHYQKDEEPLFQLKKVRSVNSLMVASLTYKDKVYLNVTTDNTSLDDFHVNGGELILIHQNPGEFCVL


Each binder was assayed against T1, 인간 OX40L 단백질 (OX40L-his; ACROBiosystems …) (assay: cell-based or functional assay).

| IC50 (nM), OX40L blockade assay | IC50 (μg/mL), OX40L blockade assay | Binder |
| --- | --- | --- |
| 1.95 nM | 0.293 µg/mL | reference 항-OX40L 항체 O4L (oxelumab VH/VL) (antibody, human IgG4 S228P, kappa, V domains shown) VH: EVQLLESGGGLVQPGGSLRLSCAASGFTFNSYAMSWVRQAPGKGLEWVSIISGSGGFTYYADSVKGRFTISRDNSRTTLYLQMNSLRAEDTAVYYCAKDRLVAPGTFDYWGQGALVTVSS VL: DIQMTQSPSSLSASVGDRVTITCRASQGISSWLAWYQQKPEKAPKSLIYAASSLQSGVPSRFSGSGSGTDFTLTISSLQPEDFATYYCQQYNSYPYTFGQGTKLEIKR |
| 0.21 nM | 0.041 µg/mL | 이중 특이성 항체 Hu3F07-TNFαi HC (bispecific antibody) heavy: not shown light: DIVMTQSPLSLPVTLGEPASISCRSSQSLVHSNGNTYLHWYLQKPGQSPQLLIYKVSNRFSGVPDRFSGSGSGTDFTLKISRVEAEDVGVYYCSQSTHVPPTFGGGTKLEIKRTVAAPSVFIFPPSDEQLKSGTASVVCLLNNFYPREAKVQWKVDNALQSGNSQESVTEQDSKDSTYSLSSTLTLSKADYEKHKVYACEVTHQGLSSPVTKSFNRGEC |
| 0.2 nM | 0.03 µg/mL | 항 OX40L 항체 Hu3F07 (antibody, human IgG4 S228P, kappa, V domains shown) VH: QVQLVQSGAEVKKPGASVKVSCKASGFTFPDYWMHWVRQAPGQGLEWMGEIDPPNGRTNYNEKFKSRVTMTRDTSISTAYMELSRLRSDDTAVYYCARGIYYVDYWGQGTTVTVSS VL: DIVMTQSPLSLPVTLGEPASISCRSSQSLVHSNGNTYLHWYLQKPGQSPQLLIYKVSNRFSGVPDRFSGSGSGTDFTLKISRVEAEDVGVYYCSQSTHVPPTFGGGTKLEIKR |
| 0.85 nM | 0.128 µg/mL | 항 OX40L 항체 21G07 (antibody, human IgG4 S228P, kappa, V domains shown) VH: QVQLQQSGAELVKPGASVKLSCKASGYTFTNYWMQWVKQRPGQGLEWIGEIDPSDGRTNYNEKFKNKATLTVDRSSSTAYIKLSSLTSEDSAVYYCAREVSLRSMDYWGQGTSVTVSS VL: DIVLTQSPLSLPVSLGDQASISCRSSQSLVHSNGNTYLHWYLQKPGQSPKLLIYKVSNRFSGVPDRFSGSGSGTDFTLKISRVEAEDLGVYFCSQSTHVPFTFGSGTKLEIKR |
| 0.41 nM | 0.061 µg/mL | 항 OX40L 항체 10H07 (antibody, human IgG4 S228P, kappa, V domains shown) VH: QVYLQQSGAELVKPGASVKLSCKASGYTFTDYWMHWVKQRPGQGLEWIGEIDPGNGRTNYNEKFKNKATLSVDKSSNTAYMQFSSLTSEDSAVFYCASEGAGRGFPYWGQGTLVTVSA VL: DVVLTQTPLSLPVSLGDQASISCRSSQSLVHSNGNTYLHWYLQKPGQSPKLLIYKVSNRFSGVPDRFSGSGSGTDFTLKISRVEAEDLGVYFCSQSTHVPWTFGGGTKLEIKR |
| 0.59 nM | 0.117 µg/mL | 이중 특이성 항체 02C09-TNFαi HC (bispecific antibody) heavy: not shown light: DIQMTQSPSSLSASLGDRVTITCRASQSIGRWLAWYQQKPGNAPKLLIYKATILESGVPSRFSGSGSGTEFALTISSLQPDDFSAYYCQQYNSYPYTFGQGTKLEIKRTVAAPSVFIFPPSDEQLKSGTASVVCLLNNFYPREAKVQWKVDNALQSGNSQESVTEQDSKDSTYSLSSTLTLSKADYEKHKVYACEVTHQGLSSPVTKSFNRGEC |

Target: T1, 인간 OX40L 단백질 (OX40L-his; ACROBiosystems …)
Assay: cell-based or functional assay
Remark: another data set of the same source

| IC50 (nM), OX40L blockade assay | Binder |
| --- | --- |
| 0.91 nM | 이중 특이성 항체 I3F07-TNFαi HC (bispecific antibody) heavy: not shown light: DIVLTQSPLSLPVSLGDQASISCRSSQSLVHSNGNTYLHWYLQKPGQSPKLLIYKVSNRFSGVPDRFSGSGSGTDFTLKISRVEAEDLGVYFCSQSTHVPPTFGGGSKLEIKRTVAAPSVFIFPPSDEQLKSGTASVVCLLNNFYPREAKVQWKVDNALQSGNSQESVTEQDSKDSTYSLSSTLTLSKADYEKHKVYACEVTHQGLSSPVTKSFNRGEC |

These binders were tested against 인간 TNFα (ACROBiosystems TNF-H5228) (human, UniProt P01375 77-233) (assay: cell-based or functional assay).
Sequence of 인간 TNFα (ACROBiosystems TNF-H5228) (P01375 77-233 limits assumed): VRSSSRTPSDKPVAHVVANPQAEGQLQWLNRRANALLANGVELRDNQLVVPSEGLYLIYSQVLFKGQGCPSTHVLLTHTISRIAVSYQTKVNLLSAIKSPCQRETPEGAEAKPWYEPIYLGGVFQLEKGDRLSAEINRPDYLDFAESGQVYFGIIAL

| IC50 (nM), TNFα blockade assay | Binder |
| --- | --- |
| 0.055 nM | 이중 특이성 항체 I3F07-TNFαi HC (bispecific antibody) heavy: not shown light: DIVLTQSPLSLPVSLGDQASISCRSSQSLVHSNGNTYLHWYLQKPGQSPKLLIYKVSNRFSGVPDRFSGSGSGTDFTLKISRVEAEDLGVYFCSQSTHVPPTFGGGSKLEIKRTVAAPSVFIFPPSDEQLKSGTASVVCLLNNFYPREAKVQWKVDNALQSGNSQESVTEQDSKDSTYSLSSTLTLSKADYEKHKVYACEVTHQGLSSPVTKSFNRGEC |
